Here are results for 2 substances from patent US20220340636A1.

The target of the test is human IR-B overexpressed on NIH 3T3 mouse fibroblast cells (human) (UniProt P06213). Put plainly: cell-based or functional assay.

Con-Ins G1 (ligand) displayed a fold less active than hIns, Akt phosphorylation assay of 10 fold and a log [EC50 (nM)], Akt phosphorylation (pAkt Ser473) of 0.78 log nM.

For the substance sCon-Ins G1 (ligand), the fold greater efficiency of Akt phosphorylation than the PTM-free analogue was 8 fold and the log [EC50 (nM)], Akt phosphorylation (pAkt Ser473) was 0.9 log nM.
